Publication PMC5544124 (Methods in enzymology, 2015)

B1: 6xHis-sfGFP-KASH2 polypeptide (KASH2 residues 6863-6885) (peptide, UniProt Q8WXH0 6863-6885, looked up)
chain: TQANNFARSFYPMLRYTNGPPPT
B2: human apo-SUN2 (residues 522-717) (domain or fragment, UniProt Q9UH99 522-717, looked up)
chain: GVTEEQVHHIVKQALQRYSEDRIGLADYALESGGASVISTRCSETYETKTALLSLFGIPLWYHSQSPRVILQPDVHPGNCWAFQGPQGFAVVRLSARIRPTAVTLEHVPKALSPNSTISSAPKDFAIFGFDEDLQQEGTLLGKFTYDQDGEPIQTFHFQAPTMATYQVVELRILTNWGHPEYTCIYRFRVHGEPAH

Columns and labels:
[1] = target: B2; experiment: SEC
[2] = target: the molecule itself; experiment: SEC

Binder	binding result [1]	stoichiometry N [2]
B1	binds	
B2		3
